This experiment addresses T1, mouse IL-12Rβ2 expressed on cells (mouse, UniProt P97378 24-874).
T1 construct: HEK293T cells, stably transduced (cDNA NM_008354); also called mIL-12RB2
T1 sequence: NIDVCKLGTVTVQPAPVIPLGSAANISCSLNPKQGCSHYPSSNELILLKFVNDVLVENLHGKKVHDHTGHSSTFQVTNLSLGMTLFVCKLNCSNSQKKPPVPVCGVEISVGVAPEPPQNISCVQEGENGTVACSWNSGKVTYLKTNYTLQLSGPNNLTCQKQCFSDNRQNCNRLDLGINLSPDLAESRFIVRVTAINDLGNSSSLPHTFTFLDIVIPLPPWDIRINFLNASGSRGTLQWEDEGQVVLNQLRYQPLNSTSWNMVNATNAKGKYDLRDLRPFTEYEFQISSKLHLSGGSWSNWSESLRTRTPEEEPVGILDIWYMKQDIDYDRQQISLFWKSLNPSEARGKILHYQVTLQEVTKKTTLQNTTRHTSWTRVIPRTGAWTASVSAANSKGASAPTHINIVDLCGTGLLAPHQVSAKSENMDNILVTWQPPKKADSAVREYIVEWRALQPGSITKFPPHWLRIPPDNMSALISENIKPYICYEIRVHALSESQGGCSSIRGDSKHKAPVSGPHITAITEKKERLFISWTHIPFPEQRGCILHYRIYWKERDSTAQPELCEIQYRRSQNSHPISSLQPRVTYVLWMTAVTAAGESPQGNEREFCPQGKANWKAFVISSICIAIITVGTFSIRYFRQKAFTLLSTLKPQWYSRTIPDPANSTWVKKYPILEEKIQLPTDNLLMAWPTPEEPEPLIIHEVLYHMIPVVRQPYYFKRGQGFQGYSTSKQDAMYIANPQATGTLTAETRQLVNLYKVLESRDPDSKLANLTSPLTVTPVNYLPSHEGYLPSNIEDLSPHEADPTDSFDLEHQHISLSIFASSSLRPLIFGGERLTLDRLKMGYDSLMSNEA
Kind of experiment: flow cytometry, P.E. VHH on HEK293T cells stably expressing mIL-12RB2.

Residue numbers refer to the chain shown, from its start.

B1: anti-IL-12Rβ2 VHH clone 2CAM67 (VHH, not shown: small tags and cut ends)
VHH: QVQLQESGGGEVQAGGSLRLSCVASGRTFSVYTTGWFRQAPGKEREFVAGMSGTRTYYADSVKGRFTISRDNAKNTVYLQMNSLKPDDTAVYYCAERRYGGPSLVWDEYDYRGQGTQVTVSS
notes: tested as periplasmic extract; also called 20494
Consider B1, for which the “% cells bound” value stood at 13.5% and the dMFI was determined as 90.

B2: anti-IL-12Rβ2 VHH clone 2CAM39 (VHH, not shown: small tags and cut ends)
VHH: QVQLQESGGGLVQAGGSLRLSCAASGRTFSTYAMGWFRQAPGKEREFVAAISWSGGSTYYADSVKGRFTISRDNAKNTGYLQMNSLKPEDTAVYVCAADAEDPILYGSSWNNRRKEYDYWGQGTQVTVSS
notes: tested as periplasmic extract; also called 20482
Turning to B2, the “% cells bound” value is 48.7% and the dMFI worked out at 255.

B3: anti-IL-12Rβ2 VHH clone 3CAM36 (VHH, not shown: small tags and cut ends)
VHH: QVQLQESGGGLVQAGESLTLSCTASGRTFSSYGMGWFRQAPGKERDFVAAISRDARYTDYADSVKGRFTISKDNAKNTAYLQMNSLNPEDTAVYFCAAAYTYSGSHYVTARSGDYNYWGQGTQVTVSS
notes: tested as periplasmic extract; also called 20511
Take B3: the “% cells bound” value is 29% and the dMFI is 151.

B4: anti-IL-12Rβ2 VHH clone 2CAMS29 (VHH, not shown: small tags and cut ends)
VHH: QVQLQESGGGLVQAGGSLRLSCAASGLTSSTYVIGWFRQAPGKEREFVAAIMLSGGTTIYADSLKGRCTIYKDNAKNTVYLQMNSLKLEDTAVYYCASGLIYRYSDFPRSQKYNFWGQGTQVTVSS
notes: tested as periplasmic extract; also called 20534
As for B4, the “% cells bound” value is 14.5% and the dMFI came out at 99.

B5: anti-IL-12Rβ2 VHH clone 2CAM45 (VHH, not shown: small tags and cut ends)
VHH: QVQLQESGGGLVQAGGSLRLSCAASGFTFDDYAIGWFRQAPGKEREGISCISSSDYGTYYAGSVKGRFTISSDNAKNTVYLQMNSLKPEDTAVYYCAAEAISEYDCLGINYGMDYWGKGTQVTVSS
notes: tested as periplasmic extract; also called 20485
As for B5, the “% cells bound” value came to 6.77% and the dMFI was 51.

B6: anti-IL-12Rβ2 VHH clone 2CAM18 (VHH)
VHH: QVQLQESGGGLVQVGDSLKLSCVASGTTFSTHVMAWYRQAPGKQREWVASIDSAGTTNYKDAVKGRFTISRDNVKRTVYLQMNNLKPEDSAVYLCSIPSRNAWGQGTQVTVSS
notes: tested as periplasmic extract; also called 20475
For B6, the “% cells bound” value is 3.19% and the dMFI was 13.6.

B7: anti-IL-12Rβ2 VHH clone 2CAM71 (VHH, not shown: small tags and cut ends)
VHH: QVQLQESGGGLVQAGGSLRLSCAASGRTLSNSVMGWFRQAPGKEREFVAALMWSAGSEFYTDSVKGRFSISGDGAKNTVYLQMNSLKAEDTAVYYCAAKNPPHRWSDIGKSPHYEYWGQGTQVTVSS
notes: tested as periplasmic extract
For the molecule B7, the “% cells bound” value worked out at 58.3% and the dMFI was found to be 322.

B8: anti-IL-12Rβ2 VHH clone 3CRHM85 (VHH, not shown: small tags and cut ends)
VHH: QVQLQESGGGLVQPGGSLRLSCAASRRTFSKHAMAWFRQAPGKEREFVAVVRWSGIITYYADSVKGRFTISRDDAKNTVYLQMDSLKPEDTAVYYCAAGDYRGNGYYVPGMYDYWGQGTQVTVSS
notes: tested as periplasmic extract; also called 21061
On to B8, for which the “% cells bound” value turned out to be 1.7% and the dMFI stood at 3.5.

B9: anti-IL-12Rβ2 VHH clone 3CRHM20 (VHH, not shown: small tags and cut ends)
VHH: QVQLQESGGGLVQAGGSLRLSCAASGRTFSKSTMGWFRQTPGKEREFVAAITWTDTEVYANSVKDRFTISRDNAKNTFYLQMHSLKLEDTAVYYCAGDRYGSSRDSVFSSPTNYPYWGQGTQVTVSS
notes: tested as periplasmic extract; also called 21055
As to B9, the “% cells bound” value amounted to 2.83% and the dMFI was determined as 7.4.

B10: anti-IL-12Rβ2 VHH clone 3CAM11 (VHH, not shown: small tags and cut ends)
VHH: QVQLQESGGGLVQAGGSLRLSCAASGRNLSTYAMGWIRQAPGKEREFVAAISWAGSTTYYADSVKGRFIISRDNAKNTLNLQMNSLKPEDTAVYYCAAPPYVTTTYYATPPSDIRDYHYWGQGTQVTVSS
notes: tested as periplasmic extract; also called 20508
Turning to B10, the “% cells bound” value was determined as 37.8% and the dMFI was determined as 181.

B11: anti-IL-12Rβ2 VHH clone 2CAM62 (VHH, not shown: small tags and cut ends)
VHH: QVQLQESGGGLVQAEGSLRLSCVASGRTFSSYGMGWFRQAPGKEREFVTGISSAGSWIGDITSYADSVKGRFTISRDNAKNILYLQMNSLKPEDTAVYYCAAAYHGSRYYVGSTANEYTTWGQGTQVTVSS
notes: tested as periplasmic extract; also called 20493
As to B11, the “% cells bound” value was 11.2% and the dMFI came out at 70.

B12: anti-IL-12Rβ2 VHH clone 3CAM10 (VHH, not shown: small tags and cut ends)
VHH: QVQLQESGGGLVQAGGSLRLSCAASGRTFSDYPMAWFRQAPGKEREFVAGISNGGTAYYADSVKGRFTISRDNTRNTVYLQMNRLKVEDTAVYYCAAVHLLSNLRGADPHEADYWGQGTQVTVSS
notes: tested as periplasmic extract; also called 20507
For B12, the “% cells bound” value turned out to be 41.7% and the dMFI came to 212.

B13: anti-IL-12Rβ2 VHH clone 3CRM95 (VHH, not shown: small tags and cut ends)
VHH: QVQLQESGGGLVQAGDFLRLSCVFSGGTFGDYSMGWFRQAPGKEREFVAAIRWSGDSTQYAEAVKGRFTISRDNAKSTVYLQMSSLKPEDTAVYYCAADPSYYIGPNHTPSRYRDWGQGTQVTVSS
notes: tested as periplasmic extract; also called 20465
Take B13: the “% cells bound” value was 6.74% and the dMFI came to 51.

B14: anti-IL-12Rβ2 VHH clone 2CRMS29 (VHH, not shown: small tags and cut ends)
VHH: QVQLQESGGGLVQAGGPLRLSCAASGRTFSGSAMGWFRQAPGKEREFVAAITWVGGFTYYADSVKGRFTISRDNAKNTVYLQMNNLSPEDTAVYSCAAQAYHKSGYYYPPLYDYWGQGTQVTVSS
notes: tested as periplasmic extract; also called 20521
For B14, the “% cells bound” value is 8.42% and the dMFI was determined as 58.

B15: anti-IL-12Rβ2 VHH clone 3CAHM40 (VHH, not shown: small tags and cut ends)
VHH: QVQLQESGGGSVQAGGSLRLSCAVSGRTVSDYAMGWFRQAPGKEREFVAAMSSSETTVYPNSMKGRITISRDNAKNAVYLQLNALKPEDTAVYYCSMGPIATFQGLARQNEYHYWGQGTQVTVSS
notes: tested as periplasmic extract
As for B15, the “% cells bound” value is 1.97% and the dMFI is -1.8.

B16: anti-IL-12Rβ2 VHH clone 3CRHM12 (VHH, not shown: small tags and cut ends)
VHH: B15 VHH with M63V, L82M, A101V
notes: tested as periplasmic extract
As to B16, the “% cells bound” value worked out at 2.2% and the dMFI turned out to be 4.8.

B17: anti-IL-12Rβ2 VHH clone 2CAM88 (VHH, not shown: small tags and cut ends)
VHH: QVQLQESGGGLVPPGDSLRLSCAASGRTFSSYTMGWFRQAPGKEREFVARISQDGGSTYYADSMKGRFTVARDNAKNTVYLQMNSLKPEDTAVYYCAADMIKWGLRVGVDSFKYWGQGTQVTVSS
notes: tested as periplasmic extract
As for B17, the “% cells bound” value is 14.8% and the dMFI is 93.

Values taken from US20260209362A1 (VIB VZW, published 2026).
